# Results published in patent publication US20260144882A1, “ANTI-NECTIN-4 ANTIBODY DRUG CONJUGATE AND USE THEREOF” (Bio-Thera Solutions, Ltd., priority 2022, published 2026).
# T1: hNectin-4-His (human Nectin-4 extracellular antigen) (Homo sapiens, UniProt Q96NY8)
# T1 construct: made in house
# T1 sequence (Q96NY8 with tags, fused parts or gaps): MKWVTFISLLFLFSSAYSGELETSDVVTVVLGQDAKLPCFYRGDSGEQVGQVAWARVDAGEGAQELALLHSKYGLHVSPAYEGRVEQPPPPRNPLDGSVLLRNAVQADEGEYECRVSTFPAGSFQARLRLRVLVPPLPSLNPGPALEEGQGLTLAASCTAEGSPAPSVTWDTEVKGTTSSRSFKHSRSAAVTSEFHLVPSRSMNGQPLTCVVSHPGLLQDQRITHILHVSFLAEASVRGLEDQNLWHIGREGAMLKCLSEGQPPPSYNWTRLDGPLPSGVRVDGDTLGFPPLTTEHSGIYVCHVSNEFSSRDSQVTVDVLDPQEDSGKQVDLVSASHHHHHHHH
# Biological target: T1, hNectin-4-His (human Nectin-4 extracellular antigen)
# Experiment: SPR (BIAcore) affinity assay
# Type: binding
# Conditions: Table 13
# Protocol: In this study, the affinity of the antibodies for the human Nectin-4 extracellular antigen was detected by surface plasmon resonance (SPR) technique (BIAcore: GE Healthcare, T200).
# Capture was performed using a Protein A chip (Cat #29127556, GE Healthcare), and 5 µg/mL antibody dilutions (in HBS-EP+(10×): GE Healthcare, Cat #BR-1006-69, with a working concentration of 1×) were directed through the experimental flow channels (Fc2 and Fc4) at a flow rate of 10 μL/min for 10 s; then, the flow rate was adjusted to 30 μL/min, the hNectin-4-His dilutions at different concentrations (0 nM, 1.23 nM, 3.7 nM, 11.1 nM, 33.3 nM, and 100 nM) were sequentially added, and simultaneously directed through the surfaces of the experimental flow channels (Fc2 and Fc4) and reference flow channels (Fc1 and Fc3) with an association time of 120 s and a dissociation time of 180 s, and finally, the chip was regenerated in Glycine 1.5.
ka,kd,Molecule
471000 M⁻¹ s⁻¹,0.00141 s⁻¹,"1G8-1G3: VH SEQ ID NO: 98 (antibody, V domains shown) VH: EVQLVESGGGLVQPGGSLRLSCAASGFNFGTYAMSWVRQAPGKGLEWVSRISGISAGTNYADSVKGRFTISRDNSKNTLYLQMNSLRAEDTAVYYCARQTEDRSYGYDLDYWGQGTLVTVSS"
742000 M⁻¹ s⁻¹,0.00147 s⁻¹,"1G8-2B3: VH SEQ ID NO: 109 (antibody, V domains shown) VH: EVQLVESGGGLVQPGGSLRLSCAASGYNFTTSAMSWVRQAPGKGLEWVSRIYQDSSTTDYADSVKGRFTISRDNSKNTLYLQMNSLRAEDTAVYYCARQTEDRSYGYDLDYWGQGTLVTVSS"
665000 M⁻¹ s⁻¹,0.00087 s⁻¹,"1G8-1E10: VH SEQ ID NO: 90 (antibody, V domains shown) VH: EVQLVESGGGLVQPGGSLRLSCAASGDSFSTYAMSWVRQAPGKGLEWVSRISGSGDGKDYADSVKGRFTISRDNSKNTLYLQMNSLRAEDTAVYYCARQTEDRSYGYDLDYWGQGTLVTVSS"
